Holding throughout (type): cell-based
For assay [1], the target named is T1, human GLP-1 receptor (hGLP-1r) (Homo sapiens, UniProt P43220).
T1 construct: expressed in transfected cells
As to the kind of experiment: BSA-cAMP assay, cells expressing human GLP-1 receptor. Particulars: Batch 1; BSA-cAMP assay; read-out: hGLP1r cAMP activity EC50. An outline of the steps: (§1)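 EC50 came from an unconstrained 4-parameter logistic fit of HTRF cAMP data expressed as percent of maximal native agonist activation, tested on two occasions. Thawed receptor-expressing cells (hGLP-1r, hGIPr at 0.5×10^5 cells/ml) treated 30 min at room temperature in 0.1% BSA-containing medium; two distinct hGIPr lines.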

The target in assay [2] is T2, mouse GIP receptor (mGIPr) (Mus musculus, UniProt Q0P543).
T2 construct: expressed in transfected cells; host or cells: HEK293s or CHO cells
T2 sequence (Q0P543 19-460): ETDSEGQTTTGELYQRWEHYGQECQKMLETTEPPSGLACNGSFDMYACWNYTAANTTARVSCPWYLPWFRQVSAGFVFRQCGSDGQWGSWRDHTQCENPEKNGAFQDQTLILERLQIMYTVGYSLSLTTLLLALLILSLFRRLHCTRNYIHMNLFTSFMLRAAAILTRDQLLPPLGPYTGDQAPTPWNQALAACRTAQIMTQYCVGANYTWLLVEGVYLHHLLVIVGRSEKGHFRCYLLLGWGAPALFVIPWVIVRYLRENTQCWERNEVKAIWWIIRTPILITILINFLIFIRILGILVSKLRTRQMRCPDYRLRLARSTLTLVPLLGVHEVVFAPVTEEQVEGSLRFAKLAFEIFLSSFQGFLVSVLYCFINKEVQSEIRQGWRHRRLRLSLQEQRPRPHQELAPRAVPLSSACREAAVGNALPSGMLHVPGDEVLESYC
The assay can be described thus: BSA-cAMP assay, cells expressing mouse GIP receptor. Particulars: Batch 1; BSA-cAMP assay; read-out: mGIPr cAMP activity EC50. The method, then:
(§2) One basic cAMP assays was performed, differing in the medium used for the assay, the “BSA-cAMP assay”:
(§3) BSA-based assay medium: 0.1% bovine serum albumin (BSA) in
(§4) In certain aspects, the assay can also be carried out in medium supplemented with serum albumin that corresponds to the receptor being tested, e.g., human serum albumin for testing cAMP activity at hGIPr or hGLP-1r, rat serum albumin for testing cAMP activity at rGIPr or rGLP-1r, and so on. […] All sample dilutions were made in duplicate.
(§5) A frozen cryo-vial of cells expressing the receptor of interest was thawed rapidly in a water-bath, transferred to pre-warmed assay media and spun at 240×g for 5 minutes. Cells were re-suspended in assay buffer at an optimized concentration (e.g., hGLP-1r and hGIPr cells at 0.5×10^5 cells/ml).
(§6) To this, 5 μL cell suspension was added and the plates incubated at room temperature for 30 minutes.
(§7) cAMP levels were measured using a commercially available cAMP dynamic 2 HTRF kit (Cisbio, Cat #62AM4PEJ), following the two step protocol as per manufacturer's recommendations. In brief; anti-cAMP cryptate (donor fluorophore) and cAMP-d2 (acceptor fluorophore) were made up separately by diluting each 1/20 in conjugate & lysis buffer provided in the kit. 5 μL anti-cAMP cryptate was added to all wells of the assay plate, and 5 μL cAMP-d2 added to all wells except non-specific binding (NSB) wells, to which conjugate and lysis buffer was added. […] Data was transformed to % Delta F as described in manufacturer's guidelines and then transformed to percent activation of maximal native agonist response and analysed by 4-parameter logistic fit to determine EC50 values.
(§8) We used unconstrained 4 parameter logistic fit of data, curve mid-point to determine EC50. This was tested on two occasions, not two batches.
(§9) In order to be able to carry out in vivo studies in rodents, IP088 was tested for potency against the mouse receptors mGIPr and mGLP-1r as well as the rat receptors rGIPr and rGLP-1r, using cells expressing the respective receptors in the cAMP assay described above.

Assay [3] addresses T3, rat GLP-1 receptor (rGLP-1r) (Rattus norvegicus, UniProt P32301).
T3 construct: expressed in transfected cells; host or cells: HEK293s or CHO cells
T3 sequence (P32301 22-463): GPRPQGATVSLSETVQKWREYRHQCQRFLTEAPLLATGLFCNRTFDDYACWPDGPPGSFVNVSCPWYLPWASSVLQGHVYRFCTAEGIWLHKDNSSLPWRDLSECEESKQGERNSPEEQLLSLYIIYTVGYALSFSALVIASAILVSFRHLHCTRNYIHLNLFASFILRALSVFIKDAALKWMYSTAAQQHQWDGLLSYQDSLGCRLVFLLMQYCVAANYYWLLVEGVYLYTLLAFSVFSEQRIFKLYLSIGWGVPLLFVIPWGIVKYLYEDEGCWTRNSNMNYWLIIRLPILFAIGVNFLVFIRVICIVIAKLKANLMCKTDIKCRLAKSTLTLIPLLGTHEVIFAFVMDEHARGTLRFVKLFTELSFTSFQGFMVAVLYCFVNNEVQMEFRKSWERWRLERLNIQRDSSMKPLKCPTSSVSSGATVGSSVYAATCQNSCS
The assay can be described thus: BSA-cAMP assay, cells expressing rat GLP-1 receptor. Particulars: Batch 1; BSA-cAMP assay; read-out: rGLP1r cAMP activity EC50. The method, then: as §2, §3, §4, §5, §6, §7, §8, §9

Assay [4] has as its target T4, rat GIP receptor (rGIPr) (Rattus norvegicus, UniProt P43219).
T4 construct: expressed in transfected cells; host or cells: HEK293s or CHO cells
T4 sequence (P43219 19-455): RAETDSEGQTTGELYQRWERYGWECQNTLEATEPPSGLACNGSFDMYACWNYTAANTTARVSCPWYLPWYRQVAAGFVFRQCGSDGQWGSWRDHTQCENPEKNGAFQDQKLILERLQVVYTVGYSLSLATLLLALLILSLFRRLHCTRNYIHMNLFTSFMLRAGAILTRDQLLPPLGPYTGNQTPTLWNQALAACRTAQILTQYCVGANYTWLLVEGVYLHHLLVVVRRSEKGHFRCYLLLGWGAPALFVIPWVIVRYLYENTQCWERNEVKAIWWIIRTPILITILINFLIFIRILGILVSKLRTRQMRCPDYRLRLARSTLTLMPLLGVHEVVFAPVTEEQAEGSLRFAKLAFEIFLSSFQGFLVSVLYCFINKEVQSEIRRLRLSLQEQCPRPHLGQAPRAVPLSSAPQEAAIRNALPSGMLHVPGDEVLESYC
The assay can be described thus: BSA-cAMP assay, cells expressing rat GIP receptor. Particulars: Batch 1; BSA-cAMP assay; read-out: rGIPr cAMP activity EC50. The method, then: as §2, §3, §4, §5, §6, §7, §8, §9

Assay [5] concerns the target T5, human glucagon receptor (GCGr) (Homo sapiens, UniProt P47871).
T5 construct: expressed in transfected cells; host or cells: HEK293s or CHO cells
As to the kind of experiment: BSA-cAMP assay, cells expressing human glucagon receptor. Particulars: Batch 1, read-out: hGCGr cAMP activity EC50. The method, then:
as §2, §3, §4, §5, §6, §7, §8

The target of assay [6] is T6, human GIP receptor (hGIPr) (Homo sapiens, UniProt P48546).
T6 construct: expressed in transfected cells
T6 sequence (P48546 22-466): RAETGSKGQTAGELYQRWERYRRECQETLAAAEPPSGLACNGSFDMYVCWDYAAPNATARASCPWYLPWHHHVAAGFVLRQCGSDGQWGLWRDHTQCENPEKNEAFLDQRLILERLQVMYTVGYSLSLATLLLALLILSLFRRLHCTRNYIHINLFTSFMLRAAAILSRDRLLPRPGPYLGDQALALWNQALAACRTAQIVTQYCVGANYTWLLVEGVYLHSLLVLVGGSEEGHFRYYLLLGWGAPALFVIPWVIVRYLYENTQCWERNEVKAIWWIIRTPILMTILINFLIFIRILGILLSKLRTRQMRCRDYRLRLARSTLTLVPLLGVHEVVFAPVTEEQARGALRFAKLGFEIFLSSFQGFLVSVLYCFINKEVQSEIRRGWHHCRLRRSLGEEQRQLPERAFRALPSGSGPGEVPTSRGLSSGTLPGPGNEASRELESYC
As to the kind of experiment: BSA-cAMP assay, cells expressing human GIP receptor. Particulars: Batch 1; BSA-cAMP assay; read-out: hGIPr cAMP activity EC50. The procedure, abridged: as §1

Assay [7] concerns the target T7, mouse GLP-1 receptor (mGLP-1r) (Mus musculus, UniProt O35659).
T7 construct: expressed in transfected cells; host or cells: HEK293s or CHO cells
T7 sequence (O35659 22-463): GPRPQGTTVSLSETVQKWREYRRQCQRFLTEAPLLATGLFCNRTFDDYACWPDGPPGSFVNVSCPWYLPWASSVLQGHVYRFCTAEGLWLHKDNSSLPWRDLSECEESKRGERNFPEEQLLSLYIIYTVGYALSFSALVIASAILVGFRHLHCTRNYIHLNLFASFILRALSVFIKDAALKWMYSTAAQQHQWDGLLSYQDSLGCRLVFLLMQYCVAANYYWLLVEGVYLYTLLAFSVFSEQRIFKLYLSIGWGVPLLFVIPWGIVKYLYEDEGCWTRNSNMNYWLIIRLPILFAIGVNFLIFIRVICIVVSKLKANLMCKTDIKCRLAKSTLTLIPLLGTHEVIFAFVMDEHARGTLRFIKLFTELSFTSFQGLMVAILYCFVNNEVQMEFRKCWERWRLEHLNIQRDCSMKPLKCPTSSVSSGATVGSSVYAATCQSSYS
The assay can be described thus: BSA-cAMP assay, cells expressing mouse GLP-1 receptor. Particulars: Batch 1; BSA-cAMP assay; read-out: mGLP1r cAMP activity EC50. The method, then: as §2, §3, §4, §5, §6, §7, §8, §9

T5 sequence (P47871 26-477): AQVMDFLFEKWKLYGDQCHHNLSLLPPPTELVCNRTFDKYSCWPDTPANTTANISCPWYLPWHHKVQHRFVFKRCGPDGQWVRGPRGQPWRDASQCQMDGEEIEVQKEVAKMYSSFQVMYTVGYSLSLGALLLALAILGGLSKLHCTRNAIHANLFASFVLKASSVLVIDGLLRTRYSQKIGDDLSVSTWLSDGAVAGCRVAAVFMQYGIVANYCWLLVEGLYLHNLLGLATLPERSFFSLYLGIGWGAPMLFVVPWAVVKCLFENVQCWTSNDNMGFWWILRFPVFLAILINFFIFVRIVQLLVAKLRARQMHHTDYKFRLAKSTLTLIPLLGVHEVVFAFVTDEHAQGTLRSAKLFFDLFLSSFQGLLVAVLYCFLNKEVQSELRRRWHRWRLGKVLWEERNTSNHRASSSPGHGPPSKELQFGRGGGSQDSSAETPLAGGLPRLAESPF
T1 sequence (P43220 24-463): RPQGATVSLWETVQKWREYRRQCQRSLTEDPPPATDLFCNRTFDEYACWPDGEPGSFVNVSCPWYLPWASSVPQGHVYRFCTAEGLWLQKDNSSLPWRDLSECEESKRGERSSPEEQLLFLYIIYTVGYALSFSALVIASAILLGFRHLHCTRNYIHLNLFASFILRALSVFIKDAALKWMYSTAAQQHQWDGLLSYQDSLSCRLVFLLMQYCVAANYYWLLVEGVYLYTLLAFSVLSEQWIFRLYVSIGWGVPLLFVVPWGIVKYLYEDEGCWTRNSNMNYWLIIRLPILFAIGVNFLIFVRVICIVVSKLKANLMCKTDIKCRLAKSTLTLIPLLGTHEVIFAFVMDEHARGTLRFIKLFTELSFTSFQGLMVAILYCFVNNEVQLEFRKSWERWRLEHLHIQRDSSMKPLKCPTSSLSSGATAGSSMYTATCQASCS

B1: IP312 (protein)
chain: YSEGTFISDVSSYMERQAIDEFIAWLLKGGAAAGGSGSTASSGSGSATGGGGAATHTCPPC
Turning to B1, the EC50 in assay [1] was > 5310 nM; in assay [2], 16 nM; in assay [3], 5.4 nM; in assay [4], 1.2 nM; in assay [5], > 5310 nM; in assay [6], 0.048 nM. Moreover, the EC50 in assay [7] is > 1060 nM.

B2: IP365 (protein)
chain: YSEGMHTSDFSKLLERQAIDEFIAWLLKGGAAAGGSGSTASSGSGSATGGGGAATHTCPPC
With B2, the EC50 was 0.87 nM in assay [1]; 17 nM in assay [2]; 1.5 nM in assay [3]; 0.12 nM in assay [4]; > 10700 nM in assay [5]; 0.02 nM in assay [6]. For the same molecule, in assay [7], the EC50 is 11 nM.

B3: IP366 (protein)
chain: YSEGTFTSDYRMLKERQAIDEFIAWLLKGGAAAGGSGSTASSGSGSATGGGGAATHTCPPC
For B3, the EC50 in assay [1] is 6.1 nM; in assay [2] it was 0.056 nM; in assay [3] it was 14 nM; in assay [4] it was 0.016 nM; in assay [5], > 10200 nM; in assay [6], 0.14 nM. Besides, the EC50 in assay [7] was 100 nM.

B4: IP315 (protein)
chain: YSEGTFISDYSSYLERQAIDEFIAWLLKGGAAAGGSGSTASSGSGSATGGGGAATHTCPPC
B4: the EC50 in assay [1] is > 5460 nM; in assay [2], 0.36 nM; in assay [3] it was 13 nM; in assay [4], 0.096 nM; in assay [5] it was 280 nM; in assay [6] it was 0.024 nM. Further, in assay [7], the EC50 is > 5460 nM.

B5: IP375 (protein)
chain: YSEGTHTSLFSKLLERQAIDEFIAWLLKGGAAAGGSGSTASSGSGSATGGGGAATHTCPPC
As to B5, the EC50 in assay [1] is 4 nM; in assay [2] it was 0.65 nM; in assay [3], 3.9 nM; in assay [4], 0.07 nM; in assay [5], > 11700 nM; in assay [6], 0.078 nM. For the same molecule, the concentration for a half-maximal effect (EC50) in assay [7] turned out to be 49 nM.

B6: IP401 (protein)
chain: YSEGTHTSDLSKLLERQAIDEFIAWLLKGGAAAGGSGSTASSGSGSATGGGGAATHTCPPC
For B6, the EC50 stood at 0.35 nM in assay [1]; 3.6 nM in assay [2]; 0.073 nM in assay [3]; 0.014 nM in assay [4]; 3100 nM in assay [5]; 3.5 nM in assay [6]. The EC50 in assay [7] worked out at 13 nM.

B7: IP376 (protein)
chain: YSEGTFTSLFSKLLERQAIDEFIAWLLKGGAAAGGSGSTASSGSGSATGGGGAATHTCPPC
As for B7, the EC50 in assay [1] was 2.4 nM; in assay [2], 0.55 nM; in assay [3], 1.3 nM; in assay [4], 0.13 nM; in assay [5] it was > 7430 nM; in assay [6], 0.083 nM. Besides, the EC50 in assay [7] stood at 21 nM.

B8: IP364 (protein)
chain: YSEGTFTSDFSKLLERQAIDEFIAWLLKGGAAAGGSGSTASSGSGSATGGGGAATHTCPPC
As for B8, the EC50 in assay [1] amounted to 0.18 nM; in assay [2], 0.5 nM; in assay [3], 0.058 nM; in assay [4], 0.02 nM; in assay [5], 610 nM; in assay [6] it was 0.0085 nM. In assay [7], the EC50 amounted to 0.69 nM.

B9: IP373 (protein)
chain: YSEGTHTSDFSKLLERQAIDEFIAWLLKGGAAAGGSGSTASSGSGSATGGGGAATHTCPPC
Regarding B9, the EC50 in assay [1] was 0.72 nM; in assay [2] it was 3.2 nM; in assay [3] it was 0.9 nM; in assay [4] it was 0.035 nM; in assay [5] it was > 6790 nM; in assay [6] it was 0.0054 nM. In assay [7], the EC50 came to 9.2 nM.

Source of the values: patent US20160185837A1 (Medimmune Limited, priority 2013, published 2016).
